Results reported in US20260275317A1, “CHIMERIC ENDOLYSINS WITH ACTIVITY AGAINST STREPTOCOCCI AND STAPHYLOCOCCI” (UNIVERSITEIT GENT, priority 2023, published 2026).

Experiments:
[1] = test system: intracellular S. uberis GCC ST-5 in MAC-T and PS cells; experiment: Intracellular killing assay in bovine mammary epithelial cell lines; type: cell-based, Streptococcus uberis; settings: 2.5 μM, 1 h
Experimental: Cells were seeded in a 24-well plate at 50.000 cells/well with the addition of 25 μg/mL calf skin collagen type I (dissolved in 0.1 M acetic acid) (Sigma-Aldrich, USA) and grown to 100% confluency. Next, medium was removed and cells were washed 3× with dPBS to remove residual P/S. An overnight bacterial culture was washed with dPBS, dissolved in an equal volume of prewarmed cell culture media without the addition of P/S and 0.5 mL thereof was incubated with the cells in every well during 3 h at 37° C. to allow intracellular invasion. Afterwards, this suspension was removed, serially diluted and plated as previously described to determine the amount of extracellular bacteria. Cells were again washed 3× with dPBS and 0.5 mL of prewarmed cell culture media was added with the addition of 200 μg/ml gentamycin (Sigma-Aldrich, USA) and incubated during 3 h at 37° C. to kill remaining extracellular and adhered bacteria. Next, this suspension was likewise removed and plated to check if killing of the extracellular and adhered bacteria was successful. Cells were again 3× washed with dPBS and 2.5 µM of prewarmed NC5 in cell culture media without P/S (buffer exchange performed at 4-8° C. by means of a Pierce™ Protein Concentrator PES 10 kDa MWCO) was added during 1 h to eradicate the intracellular bacteria. […]

S. agalactiae = experiment: Time killing assay (TKA), S. agalactiae; type: cell-based, Streptococcus agalactiae; settings: 0.3 μM
Experimental: Concerning the time killing assay, an overnight bacterial culture was diluted 1:10 for S. uberis, S. agalactiae-& dysgalactiae or 1:100 for S. aureus in PBS or UHT-pasteurized whole cow's milk. […] Finally, these fractions were serially diluted 1:10 in PBS. 5 μL of each fraction was spotted on TSA or BHI-agar and incubated overnight at 37° C. The following day, colony forming units (CFU) were counted and converted to CFU/mL to calculate logarithmic reductions in comparison with the negative control. The relative scores were calculated by dividing the observed logarithmic reduction for each endolysin by the maximal reduction observed for that specific condition and strain. Next, this value was divided by the number of conditions and strains tested (i.e., 8=4 bacterial strains×2 conditions (PBS/UHT-milk)). As such, the best performing candidate in each individual assay received a score of 0.125 (=(1/1)/8). […] Turbidity reduction assays were performed by combining 100 μL of overnight grown bacterial cells with an equal volume of purified enzyme at the desired concentration. Bacterial cells were washed with PBS and resuspended in a 1:1 ratio with enzyme to an OD600 of approximately 1.0. Next, the OD600 was measured using a Tecan infinite 200 PRO plate reader (Tecan, Switzerland) every 15 seconds at 37° C., shaking the 96-well plate between each measurement.
Time killing and turbidity reduction assays were performed as previously described in 1.3.1.
Time killing assays were performed as previously described in 1.3.1.

[2] = test system: S. uberis in mastitic raw cow's milk; experiment: Challenge of mastitic raw cow's milk; type: cell-based, Streptococcus uberis; settings: milk of 4 cows, 8 h; 0.5 μM NC5, 50 μg/mL cloxacillin or both
Experimental: Raw cow's milk from S. uberis infected dairy cows was supplied by the milk control center of Flanders (MCC Vlaanderen). Upon arrival, the milk was serially diluted and plated on BHI agar to determine the bacterial load. Only milk with >10^5 […] CFU/mL S. uberis was included as a selection criterium. If needed, the raw milk was incubated during 8 h at 37° C. to artificially increase the initial bacterial load. […] Upon incubation at 37° C., every 2 h, 20 μL was transferred from each well to 180 μL dPBS, serially diluted and plated on BHI agar. Plates were incubated overnight and CFU/mL were calculated the next day. Undiluted, mastitic milk was always pipetted with ClipTip Pipette Tips (Westburg, The Netherlands) due to high viscosity. Mastitis isolates were confirmed as S. uberis by MALDI-TOF MS biotyping.

B1: NC5: chimeric endolysin SEQ ID NO: 17; HIV-1 TAT + PlySs2 CHAP + Ply1081 CW_7 + PlySs9 amidase_3 (protein)
chain: MYGRKKRRQRRRGATTVNEALNNVRAQVGSGVSVGNGECYALASWYERMISPDATVGLGAGVGWVSGAIGDTISAKNIGSSYNWQANGWTVSTSGPFKAGQIVTLGATPGNPYGHVVIVEAVDGDRLTILEQNYGGKRYPVRNYYSAASYRQQVVHYITPPGTVAQSAPNLAGAGIDQLVQETLAGKYGNGEQRKAALGSQYQAVMAVINGKATAPKKTVDQLAQEVIQGKHGNGEDRKKSLGPDYDAVQKRVTEILKGSPSGNIPKTPSDAPKSEVVNSSTEPKTEETGANGKATDTKITKGSGKHLVICGHGQGRTGYDPGAVNAKLGITEAGKVRELSKLMSKYSGQQIDFITEQNVYDYRSITSIGKGYDSITELHFNAFNGSAKGTEVLIQSSLEADKEDMAILSLLSRYFQNRGIKKVDWLYNANQAASRGYTYRLVEIAFIDNEQDMAIFENKKEDIAKGLVSAITGVEVKTIVPSPPSSTVGSSGTPSKSIYLVGDSLRVLPHATHYQTGQKIANWVKGRTYKILQVKNVHQSNSKRAYLLDGIKSWVLEQDVEGTTKGHSKYHHHHHH
- Δ Log10 reduction of intracellular S. uberis ([1]; infected MAC-T): 1.62±0.05 Log10
- Δ Log10 reduction of intracellular S. uberis ([1]; infected PS, remaining bacteria at or below detection limit 200 CFU/mL): at least 2.12±0.08 Log10
- ΔLog10 (CFU/mL) (S. agalactiae; S. agalactiae 1, 1 h): 1.49 Log10 (CFU/mL)
- ΔLog10 (CFU/mL) (S. agalactiae; S. agalactiae 2, 1 h): 1.50 Log10 (CFU/mL)
- ΔLog10 (CFU/mL) (S. agalactiae; S. agalactiae 3, 1 h): 0.00 Log10 (CFU/mL)
- log10 reduction (S. agalactiae; mastitis-derived S. agalactiae, versus PBS): 1.50±0.12 log10
- Δ log10, reductions up to (S. agalactiae; three clinical S. agalactiae isolates): ≤ 1.50±0.02 log10
- log10 reduction of S. uberis versus PBS control [2]: caused a log10 reduction in all mastitic milk samples after 8 h
